The supplement of paper PMC11316812
± gives the standard deviation of the averaged measurements.

Tests used:
[1] = tested on: hTERT-HMEC; experiment: percentage of EdU-negative (G0-arrested) nuclei per well, 72 h; higher = more G0 arrest; conditions: reference: sequence is the full UniProt precursor, the tested protein was the secreted form or ectodomain
[2] = tested on: MCF7; experiment: as above; conditions: reference: sequence is the full UniProt precursor, the tested protein was the secreted form or ectodomain
[3] = protein concentration 0.0257143 µM
[4] = protein concentration 0.257143 µM
[5] = protein concentration 0.03125 µM
[6] = protein concentration 0.3125 µM
[7] = protein concentration 0.0173625 µM
[8] = protein concentration 0.173625 µM
[9] = protein concentration 0.0171429 µM
[10] = protein concentration 0.171429 µM
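Further: secreted proteins added to cultured cells, EdU pulse at the end, nuclei found by Hoechst imaging, EdU status from nuclear versus surrounding ring intensity ratio, PBS as neutral control.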

## MAPPSVPLVLLLVLLLSLAETPASAPAHRGRGGWTLNSAGYLLGPVLHLPQMGDQDGKRETALEILDLWKAIDGLPYSHPPQPSKRNVMETFAKPEIGDLGMLSMKIPKEEDVLKS [Q9UBC7]
[1]; [3]
  percentage of EdU-negative: 5.31 ± 1.9%
[1]; [4]
  percentage of EdU-negative: 6.11 ± 0.2%
[2]; [3]
  percentage of EdU-negative: 25.7 ± 2.2%
[2]; [4]
  percentage of EdU-negative: 27.5 ± 3%

## MGLLLPLALCILVLCCGAMSPPQLALNPSALLSRGCNDSDVLAVAGFALRDINKDRKDGYVLRLNRVNDAQEYRRGGLGSLFYLTLDVLETDCHVLRKKAWQDCGMRIFFESVYGQCKAIFYMNNPSRVLYLAAYNCTLRPVSKKKIYMTCPDCPSSIPTDSSNHQVLEAATESLAKYNNENTSKQYSLFKVTRASSQWVVGPSYFVEYLIKESPCTKSQASSCSLQSSDSVPVGLCKGSLTRTHWEKFVSVTCDFFESQAPATGSENSAVNQKPTNLPKVEESQQKNTPPTDSPSKAGPRGSVQYLPDLDDKNSQEKGPQEAFPVHLDLTTNPQGETLDISFLFLEPMEEKLVVLPFPKEKARTAECPGPAQNASPLVLPP [Q9UGM5]
[1]; [5]
  percentage of EdU-negative: 5.24 ± 0.29%
[1]; [6]
  percentage of EdU-negative: 7.43 ± 0.49%
[2]; [5]
  percentage of EdU-negative: 26.5 ± 2.8%
[2]; [6]
  percentage of EdU-negative: 27.9 ± 0.97%

## MGLGTLSPRMLVWLVASGIVFYGELWVCAGLDYDYTFDGNEEDKTETIDYKDPCKAAVFWGDIALDDEDLNIFQIDRTIDLTQNPFGNLGHTTGGLGDHAMSKKRGALYQLIDRIRRIGFGLEQNNTVKGKVPLQFSGQNEKNRVPRAATSRTERIWPGGVIPYVIGGNFTGSQRAMFKQAMRHWEKHTCVTFIERSDEESYIVFTYRPCGCCSYVGRRGNGPQAISIGKNCDKFGIVVHELGHVIGFWHEHTRPDRDNHVTIIRENIQPGQEYNFLKMEPGEVNSLGERYDFDSIMHYARNTFSRGMFLDTILPSRDDNGIRPAIGQRTRLSKGDIAQARKLYRCPACGETLQESNGNLSSPGFPNGYPSYTHCIWRVSVTPGEKIVLNFTTMDLYKSSLCWYDYIEVRDGYWRKSPLLGRFCGDKLPEVLTSTDSRMWIEFRSSSNWVGKGFAAVYEAICGGEIRKNEGQIQSPNYPDDYRPMKECVWKITVSESYHVGLTFQSFEIERHDNCAYDYLEVRDGTSENSPLIGRFCGYDKPEDIRSTSNTLWMKFVSDGTVNKAGFAANFFKEEDECAKPDRGGCEQRCLNTLGSYQCACEPGYELGPDRRSCEAACGGLLTKLNGTITTPGWPKEYPPNKNCVWQVVAPTQYRISVKFEFFELEGNEVCKYDYVEIWSGLSSESKLHGKFCGAEVPEVITSQFNNMRIEFKSDNTVSKKGFKAHFFSDKDECSKDNGGCQHECVNTMGSYMCQCRNGFVLHDNKHDCKEAECEQKIHSPSGLITSPNWPDKYPSRKECTWEISATPGHRIKLAFSEFEIEQHQECAYDHLEVFDGETEKSPILGRLCGNKIPDPLVATGNKMFVRFVSDASVQRKGFQATHSTECGGRLKAESKPRDLYSHAQFGDNNYPGQVDCEWLLVSERGSRLELSFQTFEVEEEADCGYDYVELFDGLDSTAVGLGRFCGSGPPEEIYSIGDSVLIHFHTDDTINKKGFHIRYKSIRYPDTTHTKK
[1]; protein concentration 0.014 µM
  percentage of EdU-negative: 4.501 ± 0.026%
[1]; protein concentration 0.14 µM
  percentage of EdU-negative: 5.35 ± 1.3%
[2]; protein concentration 0.014 µM
  percentage of EdU-negative: 24.6 ± 2.5%
[2]; protein concentration 0.14 µM
  percentage of EdU-negative: 29.6 ± 1.9%

## MKLCSLAVLVPIVLFCEQHVFAFQSGQVLAALPRTSRQVQVLQNLTTTYEIVLWQPVTADLIVKKKQVHFFVNASDVDNVKAHLNVSGIPCSVLLADVEDLIQQQISNDTVSPRASASYYEQYHSLNEIYSWIEFITERHPDMLTKIHIGSSFEKYPLYVLKVSGKEQAAKNAIWIDCGIHAREWISPAFCLWFIGHITQFYGIIGQYTNLLRLVDFYVMPVVNVDGYDYSWKKNRMWRKNRSFYANNHCIGTDLNRNFASKHWCEEGASSSSCSETYCGLYPESEPEVKAVASFLRRNINQIKAYISMHSYSQHIVFPYSYTRSKSKDHEELSLVASEAVRAIEKISKNTRYTHGHGSETLYLAPGGGDDWIYDLGIKYSFTIELRDTGTYGFLLPERYIKPTCREAFAAVSKIAWHVIRNV [Q96IY4]
[1]; [7]
  percentage of EdU-negative: 5.24 ± 0.032%
[1]; [8]
  percentage of EdU-negative: 5.84 ± 0.41%
[2]; [7]
  percentage of EdU-negative: 24.7 ± 2.5%
[2]; [8]
  percentage of EdU-negative: 26.8 ± 0.93%

## MPAIAVLAAAAAAWCFLQVESRHLDALAGGAGPNHGNFLDNDQWLSTVSQYDRDKYWNRFRDDDYFRNWNPNKPFDQALDPSKDPCLKVKCSPHKVCVTQDYQTALCVSRKHLLPRQKKGNVAQKHWVGPSNLVKCKPCPVAQSAMVCGSDGHSYTSKCKLEFHACSTGKSLATLCDGPCPCLPEPEPPKHKAERSACTDKELRNLASRLKDWFGALHEDANRVIKPTSSNTAQGRFDTSILPICKDSLGWMFNKLDMNYDLLLDPSEINAIYLDKYEPCIKPLFNSCDSFKDGKLSNNEWCYCFQKPGGLPCQNEMNRIQKLSKGKSLLGAFIPRCNEEGYYKATQCHGSTGQCWCVDKYGNELAGSRKQGAVSCEEEQETSGDFGSGGSVVLLDDLEYERELGPKDKEGKLRVHTRAVTEDDEDEDDDKEDEVGYIW
[1]; protein concentration 0.015 µM
  percentage of EdU-negative: 5.37 ± 0.53%
[1]; protein concentration 0.15 µM
  percentage of EdU-negative: 10.4 ± 1.6%
[2]; protein concentration 0.015 µM
  percentage of EdU-negative: 24.9 ± 1%
[2]; protein concentration 0.15 µM
  percentage of EdU-negative: 26.5 ± 1.8%

## MTPPRLFWVWLLVAGTQGVNDGDMRLADGGATNQGRVEIFYRGQWGTVCDNLWDLTDASVVCRALGFENATQALGRAAFGQGSGPIMLDEVQCTGTEASLADCKSLGWLKSNCRHERDAGVVCTNETRSTHTLDLSRELSEALGQIFDSQRGCDLSISVNVQGEDALGFCGHTVILTANLEAQALWKEPGSNVTMSVDAECVPMVRDLLRYFYSRRIDITLSSVKCFHKLASAYGARQLQGYCASLFAILLPQDPSFQMPLDLYAYAVATGDALLEKLCLQFLAWNFEALTQAEAWPSVPTDLLQLLLPRSDLAVPSELALLKAVDTWSWGERASHEEVEGLVEKIRFPMMLPEELFELQFNLSLYWSHEALFQKKTLQALEFHTVPFQLLARYKGLNLTEDTYKPRIYTSPTWSAFVTDSSWSARKSQLVYQSRRGPLVKYSSDYFQAPSDYRYYPYQSFQTPQHPSFLFQDKRVSWSLVYLPTIQSCWNYGFSCSSDELPVLGLTKSGGSDRTIAYENKALMLCEGLFVADVTDFEGWKAAIPSALDTNSSKSTSSFPCPAGHFNGFRTVIRPFYLTNSSGVD
[1]; [9]
  percentage of EdU-negative: 6.12 ± 0.82%
[1]; [10]
  percentage of EdU-negative: 8.84 ± 1.8%
[2]; [9]
  percentage of EdU-negative: 23.8 ± 3.7%
[2]; [10]
  percentage of EdU-negative: 27.9 ± 1.7%

## MTSSLLLAFLLLAPTTVATPRAGGQCPACGGPTLELESQRELLLDLAKRSILDKLHLTQRPTLNRPVSRAALRTALQHLHGVPQGALLEDNREQECEIISFAETGLSTINQTRLDFHFSSDRTAGDREVQQASLMFFVQLPSNTTWTLKVRVLVLGPHNTNLTLATQYLLEVDASGWHQLPLGPEAQAACSQGHLTLELVLEGQVAQSSVILGGAAHRPFVAARVRVGGKHQIHRRGIDCQGGSRMCCRQEFFVDFREIGWHDWIIQPEGYAMNFCIGQCPLHIAGMPGIAASFHTAVLNLLKANTAAGTTGGGSCCVPTARRPLSLLYYDRDSNIVKTDIPDMVVEACGCS
[1]; [5]
  percentage of EdU-negative: 4.58 ± 0.61%
[1]; [6]
  percentage of EdU-negative: 5.17 ± 0.32%
[2]; [5]
  percentage of EdU-negative: 25.8 ± 2.3%
[2]; [6]
  percentage of EdU-negative: 27.7 ± 2.4%
